Experimental data published in publication PMC5579359, “Sensing of viral and endogenous RNA by ZBP1/DAI induces necroptosis” (The EMBO Journal, 2017).

Biological target: the molecule itself
Assay: non-reducing SDS-PAGE and Western blot

B1: MLKL (natural protein, mouse (endogenous in NIH3T3), UniProt Q9D2Y4 1-472, looked up)
chain: MDKLGQIIKLGQLIYEQCEKMKYCRKQCQRLGNRVHGLLQPLQRLQAQGKKNLPDDITAALGRFDEVLKEANQQIEKFSKKSHIWKFVSVGNDKILFHEVNEKLRDVWEELLLLLQVYHWNTVSDVSQPASWQQEDRQDAEEDGNENMKVILMQLQISVEEINKTLKQCSLKPTQEIPQDLQIKEIPKEHLGPPWTKLKTSKMSTIYRGEYHRSPVTIKVFNNPQAESVGIVRFTFNDEIKTMKKFDSPNILRIFGICIDQTVKPPEFSIVMEYCELGTLRELLDREKDLTMSVRSLLVLRAARGLYRLHHSETLHRNISSSSFLVAGGYQVKLAGFELSKTQNSISRTAKSTKAERSSSTIYVSPERLKNPFCLYDIKAEIYSFGIVLWEIATGKIPFEGCDSKKIRELVAEDKKQEPVGQDCPELLREIINECRAHEPSQRPSVDGRSLSGRERILERLSAVEESTDKKV
notes: also called pseudokinase MLKL; source: endogenous, NIH3T3 cell and primary MEF lysates
Q: With B1 as the protein, how does the “stoichiometry N” value read?
A: 3
